According to PMC3426162 (Archaea, 2012):
Values belong to the molecule of their own block, whether it stands above or below them.

Key:
[1] = biological target: T1, AMP-dependent ACS (Mthe_1194) (Methanothrix thermoacetophila, UniProt A0B8F1); experiment: discontinuous pyrophosphate detection (molybdate / Eikonogen, […] nm); type: biochemical; conditions: co-substrates ATP and CoA; 55°C
T1 construct: gene acsA; full-length gene in pASK-IBA5, N-terminal Strep-tag II, E. coli BL21 (DE3) pLysS; approximately 75 kDa on SDS gel
T1 sequence (A0B8F1 1-659): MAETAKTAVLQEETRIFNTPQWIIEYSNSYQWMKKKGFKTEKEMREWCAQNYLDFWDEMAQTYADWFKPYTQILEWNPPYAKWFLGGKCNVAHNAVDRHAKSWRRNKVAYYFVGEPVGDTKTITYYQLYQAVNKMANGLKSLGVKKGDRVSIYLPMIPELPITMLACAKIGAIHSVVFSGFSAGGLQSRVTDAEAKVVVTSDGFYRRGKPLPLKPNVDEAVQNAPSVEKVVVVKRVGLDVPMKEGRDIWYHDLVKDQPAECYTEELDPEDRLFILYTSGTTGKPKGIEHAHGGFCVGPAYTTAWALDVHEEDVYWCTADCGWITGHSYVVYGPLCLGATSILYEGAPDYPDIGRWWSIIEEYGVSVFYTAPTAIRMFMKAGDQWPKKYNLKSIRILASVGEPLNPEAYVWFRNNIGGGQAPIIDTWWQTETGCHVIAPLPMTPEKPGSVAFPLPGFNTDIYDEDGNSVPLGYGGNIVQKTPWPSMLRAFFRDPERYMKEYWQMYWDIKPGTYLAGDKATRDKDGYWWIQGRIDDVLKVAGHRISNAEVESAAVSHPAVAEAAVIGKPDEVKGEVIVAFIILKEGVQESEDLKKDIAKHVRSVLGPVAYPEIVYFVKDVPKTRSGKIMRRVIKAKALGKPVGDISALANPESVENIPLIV

[2] = biological target: T1, AMP-dependent ACS (Mthe_1194); experiment: coupled assay via auxiliary enzymes (myokinase, pyruvate kinase, lactate dehydrogenase), NADH […] nm; type: biochemical; conditions: read-out: 50% reduction of the reaction rate
purified protein [3] = substrate: CC(=O)O; experiment: purified protein; conditions: 50 mM HEPES pH 7.5, 5 mM MgCl2, 1 mM CoA, 2.5 mM ATP, 55°C
purified protein [4] = substrate: Nc1ncnc2c1ncn2[C@@H]1O[C@H](COP(=O)(O)OP(=O)(O)OP(=O)(O)O)[C@@H](O)[C@H]1O; experiment: purified protein; type: biochemical, Methanothrix thermoacetophila; conditions: co-substrates acetate and CoA, 55°C
purified protein [5] = substrate: CC(C)(COP(=O)(O)OP(=O)(O)OC[C@H]1O[C@@H](n2cnc3c(N)ncnc32)[C@H](O)[C@@H]1OP(=O)(O)O)[C@@H](O)C(=O)NCCC(=O)NCCS; experiment: purified protein; type: biochemical, Methanothrix thermoacetophila; conditions: co-substrates acetate and ATP, 55°C

Molecule: CCC(=O)O [propionate]
discontinuous pyrophosphate detection (molybdate / Eikonogen, 580 nm) [1]: A reaction was also observed with propionate

IC50 [2]: ~250 µM
Molecule: O=P(O)(O)OP(=O)(O)O [PPi]

B1: AMP-dependent ACS (Mthe_1194) (Methanothrix thermoacetophila PT) (protein)
chain: MAETAKTAVLQEETRIFNTPQWIIEYSNSYQWMKKKGFKTEKEMREWCAQNYLDFWDEMAQTYADWFKPYTQILEWNPPYAKWFLGGKCNVAHNAVDRHAKSWRRNKVAYYFVGEPVGDTKTITYYQLYQAVNKMANGLKSLGVKKGDRVSIYLPMIPELPITMLACAKIGAIHSVVFSGFSAGGLQSRVTDAEAKVVVTSDGFYRRGKPLPLKPNVDEAVQNAPSVEKVVVVKRVGLDVPMKEGRDIWYHDLVKDQPAECYTEELDPEDRLFILYTSGTTGKPKGIEHAHGGFCVGPAYTTAWALDVHEEDVYWCTADCGWITGHSYVVYGPLCLGATSILYEGAPDYPDIGRWWSIIEEYGVSVFYTAPTAIRMFMKAGDQWPKKYNLKSIRILASVGEPLNPEAYVWFRNNIGGGQAPIIDTWWQTETGCHVIAPLPMTPEKPGSVAFPLPGFNTDIYDEDGNSVPLGYGGNIVQKTPWPSMLRAFFRDPERYMKEYWQMYWDIKPGTYLAGDKATRDKDGYWWIQGRIDDVLKVAGHRISNAEVESAAVSHPAVAEAAVIGKPDEVKGEVIVAFIILKEGVQESEDLKKDIAKHVRSVLGPVAYPEIVYFVKDVPKTRSGKIMRRVIKAKALGKPVGDISALANPESVENIPLIV
notes: full-length gene in pASK-IBA5, N-terminal Strep-tag II, E. coli BL21 (DE3) pLysS; approximately 75 kDa on SDS gel
Km (purified protein [3]): 400 µM | Km (purified protein [4]): 20 µM | Km (purified protein [5]): 14.5 µM
